In paper PMC4342108 one finds Kd data, which are given here for 1 molecule.

Holding throughout (assay): SPR
A general note: Surface plasmon resonance follows binding to a sensor surface in real time, without labels.

One data set addresses T1, tCid1 (wild type) (Schizosaccharomyces pombe, UniProt O13833 33-405).
T1 sequence: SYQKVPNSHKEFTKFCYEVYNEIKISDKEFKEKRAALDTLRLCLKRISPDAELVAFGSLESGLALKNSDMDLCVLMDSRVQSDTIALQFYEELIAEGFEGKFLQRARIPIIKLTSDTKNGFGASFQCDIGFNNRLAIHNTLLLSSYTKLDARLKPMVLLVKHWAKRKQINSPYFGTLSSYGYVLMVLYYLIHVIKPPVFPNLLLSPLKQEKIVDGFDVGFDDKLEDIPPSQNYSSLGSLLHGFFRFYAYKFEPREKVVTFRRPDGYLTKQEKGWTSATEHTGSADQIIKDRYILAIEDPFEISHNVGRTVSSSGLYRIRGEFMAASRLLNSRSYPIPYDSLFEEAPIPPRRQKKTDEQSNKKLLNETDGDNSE

Another data set concerns the target T2, tCid1 mutant 1 (Schizosaccharomyces pombe, UniProt O13833 33-405, K133A;R137A).
T2 sequence: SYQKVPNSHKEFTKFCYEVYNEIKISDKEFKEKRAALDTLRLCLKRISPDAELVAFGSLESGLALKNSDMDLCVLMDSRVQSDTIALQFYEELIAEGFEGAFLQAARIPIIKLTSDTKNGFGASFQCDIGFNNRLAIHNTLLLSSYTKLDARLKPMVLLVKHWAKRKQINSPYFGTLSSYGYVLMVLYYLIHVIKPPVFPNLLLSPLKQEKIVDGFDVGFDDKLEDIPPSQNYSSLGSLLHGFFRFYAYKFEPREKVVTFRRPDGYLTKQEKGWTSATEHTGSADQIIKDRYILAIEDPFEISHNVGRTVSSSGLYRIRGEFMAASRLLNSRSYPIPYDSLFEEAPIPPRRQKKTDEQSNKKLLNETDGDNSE

The target in a further data set is T3, tCid1 mutant 2 (Schizosaccharomyces pombe, UniProt O13833 33-405, K321A;R323A).
T3 sequence: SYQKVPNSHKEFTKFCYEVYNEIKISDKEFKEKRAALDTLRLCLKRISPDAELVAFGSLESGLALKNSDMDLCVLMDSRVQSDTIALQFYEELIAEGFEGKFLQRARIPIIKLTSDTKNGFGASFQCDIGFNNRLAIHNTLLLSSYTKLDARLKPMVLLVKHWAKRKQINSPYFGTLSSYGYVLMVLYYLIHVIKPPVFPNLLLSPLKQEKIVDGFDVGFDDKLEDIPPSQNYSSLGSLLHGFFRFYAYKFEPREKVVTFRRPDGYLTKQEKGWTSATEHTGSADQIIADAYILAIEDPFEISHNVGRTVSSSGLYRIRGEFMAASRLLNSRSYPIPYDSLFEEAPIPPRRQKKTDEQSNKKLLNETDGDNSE

The next data set addresses T4, tCid1 mutant 3 (Schizosaccharomyces pombe, UniProt O13833 33-405, R277A;K282A).
T4 sequence: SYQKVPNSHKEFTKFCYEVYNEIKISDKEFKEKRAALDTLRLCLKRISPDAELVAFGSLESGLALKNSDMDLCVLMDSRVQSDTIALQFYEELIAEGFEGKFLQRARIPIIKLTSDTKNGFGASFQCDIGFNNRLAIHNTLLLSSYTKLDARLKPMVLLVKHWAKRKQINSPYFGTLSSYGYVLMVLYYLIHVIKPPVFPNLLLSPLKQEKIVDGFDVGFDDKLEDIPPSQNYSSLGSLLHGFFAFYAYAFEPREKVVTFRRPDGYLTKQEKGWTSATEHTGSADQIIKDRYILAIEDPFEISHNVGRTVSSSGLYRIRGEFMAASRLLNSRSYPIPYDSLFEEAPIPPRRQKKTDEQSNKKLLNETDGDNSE

What is called Kd is the equilibrium constant for the complex coming apart. A lower Kd goes with a tighter complex. Take GAUUUGACGUUGGUUUUGACG (ssRNA) [21 nt SPR RNA]: the dissociation constant (Kd) with tCid1 (wild type) is roughly 0.1 µM; with tCid1 mutant 1, roughly 0.2 µM; in the data set with tCid1 mutant 2, roughly 0.45 µM; with tCid1 mutant 3 it was roughly 0.41 µM.
